Assays:
IgG [1] = test: sandwich liposome assay: IgG at 50 nM captured by DNA aptamer on silicon supporter, FcIII peptide liposomes bound, washed, UV-triggered release of pH 8.5 buffer, change of surface potential read (SD 2.87 mV)
IgG [2] = test: sandwich liposome assay: IgG at 10 nM captured by DNA aptamer on silicon supporter, FcIII peptide liposomes bound, washed, UV-triggered release of pH 8.5 buffer, change of surface potential read (SD 0.62 mV)

surface potential variation (IgG [1]): -10.6 mV
surface potential variation (IgG [2]): -3.75 mV
Substance: FcIII peptide

— patent US20210396744A1
